# Experimental data reported in patent publication US20260151494A1 (ARO BIOTHERAPEUTICS, published 2026).
# Changes are numbered by the printed parent chain.
# B1: CD71-binding FN3 domain SEQ ID NO 394 (designed binder)
# chain: MLPAPKNLVVSRVTEDSARLSWTAPDAAFDSFFIGYLEPQPPGEAIYLLVPGSERSYDLTGLKPGTEYNVTIQGVKGGFPSTPLEASFTT
# B2: CD71-binding FN3 domain SEQ ID NO 423 (designed binder)
# chain: B1 chain with Y47A, L49Y, T82E, E85V, S87T
# B3: CD71-binding FN3 domain SEQ ID NO 417 (designed binder)
# chain: B1 chain with Y47Q, L49F, T82D, E85V
# B4: CD71-binding FN3 domain SEQ ID NO 404 (designed binder)
# chain: B1 chain with Y47H, T82E, E85L, S87I, F88V
# B5: CD71-binding FN3 domain SEQ ID NO 401 (designed binder)
# chain: B1 chain with Y47A, L49W, V70I, T82M, E85V, S87N
# B6: CD71-binding FN3 domain SEQ ID NO 421 (designed binder)
# chain: B1 chain with Y47D, L49W, T82M, S87V
# notes: The cell prints '42'
# B7: CD71-binding FN3 domain SEQ ID NO 408 (designed binder)
# chain: B1 chain with Y47G, L49W, T82M, E85S, S87I
# B8: CD71-binding FN3 domain SEQ ID NO 400 (designed binder)
# chain: B1 chain with Y47H, L49F, T82G, E85H, S87T
# B9: CD71-binding FN3 domain SEQ ID NO 416 (designed binder)
# chain: B1 chain with Y47A, L49Y, T82L, E85V, S87T
# B10: CD71-binding FN3 domain SEQ ID NO 425 (designed binder)
# chain: B1 chain with Y47G, T82N, E85S, S87I
# B11: CD71-binding FN3 domain SEQ ID NO 398 (designed binder)
# chain: B1 chain with L49T, T82K, E85T, S87N
# B12: CD71-binding FN3 domain SEQ ID NO 395 (designed binder)
# chain: B1 chain with A27T, Y47G, L49F, T82D, E85S, S87F
# B13: CD71-binding FN3 domain SEQ ID NO 405 (designed binder)
# chain: B1 chain with Y47H, L49W, T82L, E85S, S87F
# B14: CD71-binding FN3 domain SEQ ID NO 411 (designed binder)
# chain: B1 chain with Y47S, L49F, T82V, E85S, S87T
# B15: CD71-binding FN3 domain SEQ ID NO 427 (designed binder)
# chain: B1 chain with Y47H, L49R, T82D, E85I, S87V
# B16: CD71-binding FN3 domain SEQ ID NO 420 (designed binder)
# chain: B1 chain with Y47H, L49Q, Q73H, F79I, T82M, E85S, S87K
# B17: CD71-binding FN3 domain SEQ ID NO 426 (designed binder)
# chain: B1 chain with Y47F, T82M, E85S, S87I
# B18: CD71-binding FN3 domain SEQ ID NO 424 (designed binder)
# chain: B1 chain with Y47H, L49I, T82D, E85D
# B19: CD71-binding FN3 domain SEQ ID NO 399 (designed binder)
# chain: B1 chain with Y47T, L49Y, E85T, S87T
# B20: CD71-binding FN3 domain SEQ ID NO 412 (designed binder)
# chain: B1 chain with Y47G, T82H, E85L, S87V
# B21: CD71-binding FN3 domain SEQ ID NO 415 (designed binder)
# chain: B1 chain with Y47H, L49Q, T82M, E85S, S87I
# B22: CD71-binding FN3 domain SEQ ID NO 428 (designed binder)
# chain: B1 chain with Y47S, L49Y, T82N, E85I, S87Q
# B23: CD71-binding FN3 domain SEQ ID NO 409 (designed binder)
# chain: B1 chain with Y47H, L49F, T82N, E85S, S87Q
# B24: CD71-binding FN3 domain SEQ ID NO 422 (designed binder)
# chain: B1 chain with Y47S, T82H, E85D
# B25: CD71-binding FN3 domain SEQ ID NO 413 (designed binder)
# chain: B1 chain with L49R, T82A, E85H, S87H
# B26: CD71-binding FN3 domain SEQ ID NO 419 (designed binder)
# chain: B1 chain with Y47A, T82S, E85N, S87Y
# B27: CD71-binding FN3 domain SEQ ID NO 410 (designed binder)
# chain: B1 chain with Y47A, L49W, T82Q, E85H, S87H
# B28: CD71-binding FN3 domain SEQ ID NO 396 (designed binder)
# chain: B1 chain with L49T, T82M, E85S, S87I
# B29: CD71-binding FN3 domain SEQ ID NO 433 (designed binder)
# chain: B1 chain with Y47A, L49Y, T82L, S87N
# B30: CD71-binding FN3 domain SEQ ID NO 414 (designed binder)
# chain: B1 chain with Y47H, L49Y, T82H, E85I, S87N
# B31: CD71-binding FN3 domain SEQ ID NO 430 (designed binder)
# chain: B1 chain with Y47D, L49W, T82Y, E85S
# B32: CD71-binding FN3 domain SEQ ID NO 431 (designed binder)
# chain: B1 chain with Y47V, L49F, T82N, E85S, S87I, F88S
# B33: CD71-binding FN3 domain SEQ ID NO 432 (designed binder)
# chain: B1 chain with Y47A, L49Y, T82G, S87Y
# Legend:
# [1] = target: T1, human CD71 extracellular domain (human, UniProt P02786 89-760); experiment: primary ELISA; also: test concentration or dose not given here
# T1 construct: also called hCD71; CD71-ECD
# [2] = target: T2, human apical domain of CD71 (human, UniProt P02786 189-383, limits assumed); experiment: primary ELISA; also: test concentration or dose not given here
# T2 construct: domain: apical domain
# [3] = target: T1, human CD71 extracellular domain; experiment: primary ELISA; signal over HSA control; as to RLU: test concentration or dose not given here
# [4] = target: T2, human apical domain of CD71; experiment: primary ELISA; signal over HSA control; as to RLU: test concentration or dose not given here
# T2 sequence (P02786 189-383 limits assumed): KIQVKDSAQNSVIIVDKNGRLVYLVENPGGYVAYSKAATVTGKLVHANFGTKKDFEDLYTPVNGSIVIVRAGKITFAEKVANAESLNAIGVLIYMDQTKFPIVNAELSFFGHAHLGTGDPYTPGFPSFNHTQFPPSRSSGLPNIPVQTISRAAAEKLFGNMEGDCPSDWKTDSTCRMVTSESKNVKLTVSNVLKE
# T1 sequence (P02786 89-760): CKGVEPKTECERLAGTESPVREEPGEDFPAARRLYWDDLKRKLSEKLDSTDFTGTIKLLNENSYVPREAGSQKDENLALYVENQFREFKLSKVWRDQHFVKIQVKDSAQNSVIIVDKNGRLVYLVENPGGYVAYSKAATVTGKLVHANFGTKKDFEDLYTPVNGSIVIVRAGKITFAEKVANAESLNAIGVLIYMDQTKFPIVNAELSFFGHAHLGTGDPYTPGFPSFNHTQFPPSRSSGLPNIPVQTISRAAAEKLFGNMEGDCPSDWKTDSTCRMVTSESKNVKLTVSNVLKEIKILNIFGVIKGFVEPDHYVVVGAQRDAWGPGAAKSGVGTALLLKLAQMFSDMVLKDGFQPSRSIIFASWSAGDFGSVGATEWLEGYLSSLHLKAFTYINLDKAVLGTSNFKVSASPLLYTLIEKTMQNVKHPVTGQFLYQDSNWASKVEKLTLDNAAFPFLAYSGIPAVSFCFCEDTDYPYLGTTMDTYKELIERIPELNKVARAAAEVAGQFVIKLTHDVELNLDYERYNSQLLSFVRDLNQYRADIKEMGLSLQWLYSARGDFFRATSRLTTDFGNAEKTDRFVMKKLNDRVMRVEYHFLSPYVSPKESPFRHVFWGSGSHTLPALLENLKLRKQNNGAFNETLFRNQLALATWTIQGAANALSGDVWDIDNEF
Binder,RLU [1],RLU [2],hCD71:HSA [3],Apical domain:HSA [4]
B1,2.86e+06 RLU,5.66e+06 RLU,218 ratio,430 ratio
B2,6.63e+06 RLU,6.56e+06 RLU,58 ratio,57 ratio
B3,4.51e+06 RLU,6.17e+06 RLU,305 ratio,417 ratio
B4,4.72e+06 RLU,5.66e+06 RLU,122 ratio,146 ratio
B5,5.64e+06 RLU,5.82e+06 RLU,41 ratio,42 ratio
B6,1.76e+06 RLU,4.2e+06 RLU,167 ratio,398 ratio
B7,2.26e+06 RLU,3.23e+06 RLU,116 ratio,165 ratio
B8,5.67e+06 RLU,6.54e+06 RLU,141 ratio,163 ratio
B9,6.6e+06 RLU,6.32e+06 RLU,54 ratio,52 ratio
B10,4.44e+06 RLU,6.23e+06 RLU,247 ratio,347 ratio
B11,2.12e+06 RLU,2.07e+06 RLU,132 ratio,129 ratio
B12,5.11e+06 RLU,6.59e+06 RLU,72 ratio,92 ratio
B13,1.95e+06 RLU,3.47e+06 RLU,108 ratio,193 ratio
B14,5.23e+06 RLU,6.36e+06 RLU,261 ratio,318 ratio
B15,2.25e+06 RLU,3.52e+06 RLU,392 ratio,612 ratio
B16,3.2e+06 RLU,3.93e+06 RLU,402 ratio,495 ratio
B17,4.43e+06 RLU,5.95e+06 RLU,13 ratio,176 ratio

Binder,RLU [1],RLU [2],hCD71:HSA [3],Apical domain:HSA [4]
B18,3.9e+06 RLU,5.16e+06 RLU,117 ratio,155 ratio
B19,5.88e+06 RLU,5.04e+06 RLU,297 ratio,255 ratio
B20,4.37e+06 RLU,6e+06 RLU,112 ratio,153 ratio
B21,3.51e+06 RLU,3.61e+06 RLU,501 ratio,516 ratio
B22,6.19e+06 RLU,5.9e+06 RLU,195 ratio,186 ratio
B23,4.91e+06 RLU,6.2e+06 RLU,225 ratio,284 ratio
B24,2.97e+06 RLU,5.88e+06 RLU,171 ratio,340 ratio
B25,3.86e+06 RLU,4.98e+06 RLU,287 ratio,370 ratio
B26,3.6e+06 RLU,4.59e+06 RLU,211 ratio,269 ratio
B27,3.9e+06 RLU,3.2e+06 RLU,46 ratio,379 ratio
B28,2.23e+06 RLU,2.47e+06 RLU,165 ratio,183 ratio
B29,3.26e+06 RLU,3.57e+06 RLU,169 ratio,184 ratio
B30,6.71e+06 RLU,6.18e+06 RLU,86 ratio,79 ratio
B31,3.64e+06 RLU,3.58e+06 RLU,126 ratio,124 ratio
B32,4.4e+06 RLU,4.35e+06 RLU,89 ratio,88 ratio
B33,3.73e+06 RLU,3.11e+06 RLU,94 ratio,79 ratio
